{"source": "paper PMC6589385", "origin": "cited, not measured here", "target": "His37 (UniProt position 37, IIGILHLILWI)", "assay": "NMR", "settings": "Membrane-bound wild-type AM2 tetrameric channel", "data": [{"substance": "Influenza A virus M2 protein (AM2) transmembrane domain, wild type (Influenza A virus)", "values": [{"measurement": "pKa", "result": 5.9}]}]}
